Literature values as cited in article PMC6158072.

Experiments:
Cys = conditions: not stated (presumably the reduced thiol form)

Row | Substance | pKa (Lys) | pKa (Cys)
1 | Acetoacetate decarboxylase (not stated (Clostridium acetobutylicum inferred)) | around 6 | –
2 | Peroxiredoxin 5 (Prx5) (Homo sapiens) | – | 5.5
